Experimental data: FireProtDB (doi:10.1016/s0022-2836(03)00249-3)
Where “and” joins values, the source holds several entries; their conditions need not be identical. Equal values may be shown once.

Conditions: Saccharomyces cerevisiae (strain ATCC 204508 / S288c), 25 °C, GdnHCl, reversible: yes, whole UniProt chain shown
[1] = pH 7, Fluorescence, Tris-HCl 50 mM, NaCl 0.2 M, transition: 2
[2] = pH 7.5, Fluorescence, Tris-HCl 50 mM, NaCl 0.2 M, transition: 2
[3] = pH 7.5, Fluorescence, Tris-phosphate 50 mM, NaCl 0.2 M, transition: 2
[4] = pH 8, CD, Na2HPO4-KH2PO4 50 mM, NaCl 0.15 M, transition: 3
[5] = pH 8, Fluorescence, Na2HPO4-KH2PO4 50 mM, NaCl 0.15 M, transition: 2
[6] = pH 8, Fluorescence, Tris-HCl 50 mM, NaCl 0.2 M, transition: 2
[7] = pH 8, Fluorescence, Tris-HCl 50 mM, NaCl 0.2 M, transition: 3
[8] = pH 8.4, Fluorescence, Tris-HCl 50 mM, NaCl 0.2 M, transition: 2
[9] = pH 8.5, Fluorescence, Na2HPO4-KH2PO4 50 mM, NaCl 0.15 M, transition: 2

B1: Transcriptional regulator URE2 wild type, P23202 (protein)
chain: MMNNNGNQVSNLSNALRQVNIGNRNSNTTTDQSNINFEFSTGVNNNNNNNSSSNNNNVQNNNSGRNGSQNNDNENNIKNTLEQHRQQQQAFSDMSHVEYSRITKFFQEQPLEGYTLFSHRSAPNGFKVAIVLSELGFHYNTIFLDFNLGEHRAPEFVSVNPNARVPALIDHGMDNLSIWESGAILLHLVNKYYKETGNPLLWSDDLADQSQINAWLFFQTSGHAPMIGQALHFRYFHSQKIASAVERYTDEVRRVYGVVEMALAERREALVMELDTENAAAYSAGTTPMSQSRFFDYPVWLVGDKLTIADLAFVPWNNVVDRIGINIKIEFPEVYKWTKHMMRRPAVIKALRGE
denaturant m value [1]: 3.2 kcal/mol/M | denaturant midpoint (higher = more stable) [1]: 2.4 M | unfolding free energy [1]: 17 kcal/mol | unfolding free energy (pH 7, Fluorescence, Tris-HCl 50 mM, NaCl 0.2 M, transition: 3): 7.9 kcal/mol | denaturant m value [2]: 3.6 kcal/mol/M | denaturant midpoint (higher = more stable) [2]: 2.64 M | unfolding free energy [2]: 20 kcal/mol | unfolding free energy (pH 7.5, Fluorescence, Tris-HCl 50 mM, NaCl 0.2 M, transition: 3): 8.8 kcal/mol and 8.5 kcal/mol and 8.9 kcal/mol | denaturant m value [3]: 4.8 kcal/mol/M and 5.2 kcal/mol/M | denaturant midpoint (higher = more stable) [3]: 2.66 M and 2.53 M | unfolding free energy [3]: 21 kcal/mol and 22 kcal/mol | unfolding free energy (pH 7.5, Fluorescence, Tris-phosphate 50 mM, NaCl 0.2 M, transition: 3): 9 kcal/mol | denaturant midpoint (higher = more stable) [4]: 2.33 M and 3.54 M | unfolding free energy [4]: 7 kcal/mol | denaturant m value [5]: 4 kcal/mol/M | denaturant midpoint (higher = more stable) [5]: 2.48 M | unfolding free energy [5]: 19 kcal/mol | unfolding free energy (pH 8, Fluorescence, Na2HPO4-KH2PO4 50 mM, NaCl 0.15 M, transition: 3): 6.9 kcal/mol and 6.8 kcal/mol | denaturant m value [6]: 3 kcal/mol/M and 4.1 kcal/mol/M and 6 kcal/mol/M | denaturant midpoint (higher = more stable) [6]: 3 M and 2.84 M and 2.66 M | unfolding free energy [6]: 16 kcal/mol and 19 kcal/mol | denaturant m value [7]: 8 kcal/mol/M and 3 kcal/mol/M | denaturant midpoint (higher = more stable) [7]: 3.23 M and 2.67 M | unfolding free energy [7]: 8 kcal/mol | denaturant m value [8]: 5 kcal/mol/M and 5.5 kcal/mol/M and 6.8 kcal/mol/M | denaturant midpoint (higher = more stable) [8]: 3.06 M and 2.95 M and 2.93 M | unfolding free energy [8]: 23 kcal/mol and 24 kcal/mol | denaturant m value [9]: 5 kcal/mol/M | denaturant midpoint (higher = more stable) [9]: 2.57 M | unfolding free energy [9]: 22 kcal/mol | unfolding free energy (pH 8.5, Fluorescence, Na2HPO4-KH2PO4 50 mM, NaCl 0.15 M, transition: 3): 7.6 kcal/mol and 7.4 kcal/mol and 7.5 kcal/mol
